Measured values published in patent CN116178530A.

Target: SARS-CoV-2活病毒的刺突蛋白 (SARS-CoV-2) (UniProt P0DTC2)
Assay: cell-based or functional assay

Question: CB6 (antibody) was tested. Which 活病毒中和 ND50 (CPE抑制, Vero E6细胞) did it give?
Answer: 0.256 µg/mL
